Experimental data taken from the Immune Epitope Database (IEDB).

How the values were obtained:
[1] = molecular target: HLA-A*11:01; test: IEDB peptide-MHC binding, purified MHC/direct/fluorescence; filed as Kd, often an IC50 or EC50 that approximates it; ≥ and ≤ were set here for values at or beyond the usual limits of such assays
[2] = molecular target: HLA-A*01:01; test: as above
[3] = molecular target: HLA-B*58:01; test: as above
[4] = molecular target: HLA-B*44:02; test: as above; settings: source organism: Haemophilus influenzae
[5] = molecular target: HLA-A*02:01; test: as above
[6] = molecular target: HLA-B*35:01; test: as above; settings: source organism: Vibrio vulnificus
[7] = molecular target: HLA-A*26:01; test: as above
[8] = molecular target: HLA-C*12:03; test: as above; settings: source organism: Yersinia pestis Nepal516
[9] = molecular target: HLA-B*08:01; test: as above; settings: source organism: Haemophilus influenzae
[10] = molecular target: HLA-B*07:02; test: as above
[11] = molecular target: HLA-B*27:05; test: as above
[12] = molecular target: HLA-B*15:01; test: as above
[13] = molecular target: HLA-A*03:01; test: as above
[14] = molecular target: HLA-A*31:01; test: as above
[15] = molecular target: HLA-A*69:01; test: as above; settings: source organism: Vibrio vulnificus
[16] = molecular target: HLA-B*18:01; test: as above
[17] = molecular target: HLA-B*08:03; test: as above; settings: source organism: Giardia lamblia ATCC 50803
[18] = molecular target: HLA-B*40:01; test: as above; settings: source organism: Giardia intestinalis
[19] = molecular target: HLA-B*57:01; test: as above
[20] = molecular target: HLA-A*68:02; test: as above; settings: source organism: Giardia intestinalis
[21] = molecular target: HLA-B*48:01; test: as above; settings: source organism: Giardia intestinalis
[22] = molecular target: HLA-B*15:17; test: as above
[23] = molecular target: HLA-B*46:01; test: as above
[24] = molecular target: HLA-B*57:01; test: IEDB peptide-MHC binding, purified MHC/competitive/radioactivity; filed as Kd, often an IC50 or EC50 that approximates it; ≥ and ≤ were set here for values at or beyond the usual limits of such assays
[25] = molecular target: HLA-B*58:01; test: as above
[26] = molecular target: HLA-A*29:02; test: IEDB peptide-MHC binding, purified MHC/direct/fluorescence; filed as Kd, often an IC50 or EC50 that approximates it; ≥ and ≤ were set here for values at or beyond the usual limits of such assays; settings: source organism: Giardia lamblia ATCC 50803
[27] = molecular target: HLA-B*51:01; test: as above; settings: source organism: Giardia lamblia ATCC 50803
[28] = molecular target: HLA-B*27:03; test: as above; settings: source organism: Giardia lamblia ATCC 50803
[29] = molecular target: HLA-B*39:01; test: as above; settings: source organism: Giardia lamblia ATCC 50803
[30] = molecular target: HLA-A*24:03; test: as above; settings: source organism: Giardia lamblia ATCC 50803
[31] = source organism: Haemophilus influenzae
[32] = source organism: Vibrio vulnificus
[33] = source organism: Giardia intestinalis
[34] = source organism: Dengue virus 3 Martinique/1243/1999
[35] = source organism: Giardia lamblia ATCC 50803
[36] = source organism: Dengue virus 4 Philippines/H241/1956

IMDEPTSSL
Kd [1, 31]: ≥ 20 µM | Kd [2, 32]: 14.3 µM | Kd [3, 31]: ≥ 20 µM | Kd [4]: ≥ 20 µM | Kd [5, 32]: 0.0267 µM | Kd [6]: 2.07 µM | Kd [7, 31]: ≥ 20 µM | Kd [8]: ≥ 20 µM | Kd [9]: ≥ 20 µM | Kd [10, 32]: ≥ 5 µM | Kd [11, 31]: ≥ 20 µM | Kd [12, 32]: 0.173 µM | Kd [13, 31]: ≥ 20 µM | Kd [14, 31]: ≥ 20 µM | Kd [15]: 0.0649 µM

INTLESMMK
Kd [16, 33]: ≥ 20 µM | Kd [1, 33]: 12 µM | Kd [2, 33]: ≥ 20 µM | Kd [17]: ≥ 20 µM | Kd [18]: ≥ 20 µM | Kd [19, 33]: ≥ 20 µM | Kd [20]: ≥ 20 µM | Kd [21]: ≥ 20 µM | Kd [3, 33]: ≥ 20 µM | Kd [22, 33]: ≥ 20 µM | Kd [23, 33]: ≥ 20 µM | Kd [5, 33]: ≥ 20 µM | Kd [10, 33]: ≥ 20 µM | Kd [11, 33]: ≥ 20 µM | Kd [12, 33]: ≥ 20 µM | Kd [13, 33]: ≥ 20 µM | Kd [14, 33]: ≥ 20 µM

KAWMVHRQW
Kd [24, 34]: 0.00127 µM | Kd [25, 34]: 0.00108 µM

KTRANDWDF
Kd ([24]; source organism: Dengue virus 2 Jamaica/1409/1983): 0.0221 µM

LLIQGLKTV
Kd [16, 35]: ≥ 20 µM | Kd [26]: ≥ 20 µM | Kd [19, 35]: ≥ 20 µM | Kd [27]: ≥ 20 µM | Kd [22, 35]: ≥ 20 µM | Kd [23, 35]: ≥ 20 µM | Kd [5, 35]: 0.002 µM | Kd [7, 35]: ≥ 20 µM | Kd [28]: ≥ 20 µM | Kd [29]: ≥ 20 µM | Kd [30]: ≥ 20 µM | Kd [13, 35]: ≥ 20 µM

LSSRATWAKN
Kd [24, 36]: 1.88 µM | Kd [25, 36]: 0.156 µM
